Laboratory results from US20230365636A1, “BIOORTHOGONAL REPORTER GENE SYSTEM” (priority 2020, published 2023).

How the values were obtained:
[1] = biological target: T1, reporter protein DTPA-V5-TMD-mRuby3 (DTPA-R) on Jurkat cells (Homo sapiens, UniProt P80188, C107S/D67E/D97E/I100T/I61A/I75T/K154S/K66P/K70L/K95M/L127F/L56R/L62P/L90R/M71L/N85D/P68L/Q48H/Q69L/R101M/R63P/S119N/S147Q/S88A/T156S/T74Q/V53Q/W99L/Y158L/Y72T); experiment: Competition radioligand binding assay (Y-90 radioligand vs Y-89 charged chelator) on Jurkat cells; conditions: competition of fixed amount of Y-90 radioligand by dilution series of Y-89 charged chelator, FIG. 14A
T1 construct: to Jurkat cells expressing the reporter protein DTPA-V5-TMD-mRuby3 was assessed; expressed in transfected cells; host or cells: Jurkat (human T-cell line), stably modified
T1 sequence (P80188 21-197 with the stated changes): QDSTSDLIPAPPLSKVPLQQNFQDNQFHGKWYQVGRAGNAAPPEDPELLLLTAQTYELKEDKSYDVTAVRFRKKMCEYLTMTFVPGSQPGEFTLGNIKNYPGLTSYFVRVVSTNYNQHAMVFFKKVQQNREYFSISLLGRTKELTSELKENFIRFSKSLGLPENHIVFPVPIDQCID
Description: The binding of different radioligands to cells that express the DTPA-R or Colchi-R was shown in binding assays. To this end, Jurkat or PC3 cells that stably express the respective reporter protein of the invention were cultivated, counted and a defined concentration was incubated together with the radioligand in PBS with 2% BSA for 1 h at 37° C. Subsequently, the cells were washed twice with PBS with 2% BSA and finally in the cell-bound fraction and the supernatant fraction the respective radioactivity was detected. (A) NH2-Bn-CHX-A″-DTPA⋅Y-90 binding was competed with a non-radioactive competitor NH2-Bn-CHX-A″-DTPA⋅Y-89. […] (C) A comparative binding assay with ^18F-Py-Ahx-DTPA and ^18F-Py-Glu-Glu-PEG(4)-Colchicine to Jurkat cells expressing either DTPA-R or Colchi-R proving the orthogonal functionality of the two reporter protein & reporter probe pairs.
For the sensitive and specific detection of cells that are labeled with the reporter gene of the invention, the binding between the Anticalin binding protein and the radioligand is of utmost importance. For this reason, the binding of different radioligands to cells that were stably modified with the reporter genes was studies in vitro (FIG. 14). At first, the binding of the ligand domain for the DTPA-R (NH2-CHX-A″-DTPA) to Jurkat cells expressing the reporter protein DTPA-V5-TMD-mRuby3 was assessed. […]

[2] = biological target: Colchi-V5-TMD-mRuby3 (human); experiment: Magnetic-activated cell separation with SV5-PK1 and anti-mouse IgG microbeads, read by flow cytometry for mRuby3. Cells: Jurkat Colchi-V5-TMD-mRuby3.
DTPA-miRFP720 = experiment: Flow cytometry of lentivirally transduced Jurkat cells stained with Alexa Fluor 488-conjugated SV5-PK1 against the extracellular V5-tag. Target printed as DTPA-miRFP720.
scFv(huC825)-V5-CD4TMD [3] = experiment: Flow cytometry of retrovirally transduced Jurkat cells after FACS sorting of the 10% highest expressing cells. Staining with AlexaFluor488-conjugated SV5-PK1. Target printed as huC825-V5-TMD.
CL31d-V5-CD4TMD (human) [4] = experiment: Flow cytometry of lentivirally transduced Jurkat cells stained with Alexa Fluor 488-conjugated SV5-PK1 against the extracellular V5-tag. Target printed as DTPA-TMD.
Sequence of CL31d-V5-CD4TMD (human) (chain, as listed by the source): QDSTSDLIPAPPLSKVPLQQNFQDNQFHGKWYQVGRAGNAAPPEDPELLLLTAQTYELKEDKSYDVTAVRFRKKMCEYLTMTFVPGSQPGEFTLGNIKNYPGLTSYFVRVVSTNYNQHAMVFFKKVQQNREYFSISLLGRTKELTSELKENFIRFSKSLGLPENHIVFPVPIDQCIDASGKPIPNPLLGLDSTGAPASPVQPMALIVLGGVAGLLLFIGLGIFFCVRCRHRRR

Colchi-V5-TMD (human) = experiment: Quantification of the SV5-PK1 western blot signals with LI-COR software. The y axis is fold change [relative].
CL31d-V5-CD4TMD (human) [5] = experiment: as above
DTPA-miRFP703 = experiment: Flow cytometry of lentivirally transduced Jurkat cells stained with Alexa Fluor 488-conjugated SV5-PK1 against the extracellular V5-tag. Target printed as DTPA-miRFP703.
CL31d-V5-CD4TMD (human) [6] = experiment: Flow cytometry of retrovirally transduced Jurkat cells after FACS sorting of the 10% highest expressing cells. Staining with AlexaFluor488-conjugated SV5-PK1. Target printed as CL31d-V5-TMD.
scFv(muC825)-V5-CD4TMD [7] = experiment: Flow cytometry of retrovirally transduced Jurkat cells after FACS sorting of the 10% highest expressing cells. Staining with AlexaFluor488-conjugated SV5-PK1. Target printed as muC825-V5-TMD.
[8] = biological target: DTPA-V5-TMD-mRuby3 (human); experiment: Flow cytometry of lentivirally transduced Jurkat cells stained with Alexa Fluor 488-conjugated SV5-PK1 against the extracellular V5-tag. Target printed as DTPA-mRuby3.
scFv(huC825)-V5-CD4TMD [9] = experiment: flow cytometry, SV5-PK1-AlexaFluor488 on transduced Jurkat cells; the filing reads it as surface expression level
scFv(muC825)-V5-CD4TMD [10] = experiment: as above
CL31d-V5-CD4TMD (human) [11] = experiment: as above
[12] = biological target: DTPA-V5-TMD-mRuby3 (human); experiment: Magnetic-activated cell separation with SV5-PK1 and anti-mouse IgG microbeads, read by flow cytometry for mRuby3. Cells: Jurkat DTPA-V5-TMD-mRuby3.

| Molecule | IC50 [1] | % mRuby3-positive cells in the MACS eluate [2] | % mRuby3-positive cells in the MACS flow through [2] | MFI (DTPA-miRFP720) | MFI (scFv(huC825)-V5-CD4TMD [3]) | MFI (CL31d-V5-CD4TMD (human) [4]) | fold increase of the quantified V5 band signal, lane 5 over lane 3 (Colchi-V5-TMD-mRuby3) (Colchi-V5-TMD (human)) | fold increase of the quantified V5 band signal, lane 4 over lane 2 (DTPA-V5-TMD-mRuby3) (CL31d-V5-CD4TMD (human) [5]) | MFI (DTPA-miRFP703) | MFI (CL31d-V5-CD4TMD (human) [6]) | MFI (scFv(muC825)-V5-CD4TMD [7]) | MFI [8] | Median Fluorescence Intensity (MFI) (scFv(huC825)-V5-CD4TMD [9]) | Median Fluorescence Intensity (MFI) (scFv(muC825)-V5-CD4TMD [10]) | Median Fluorescence Intensity (MFI) (CL31d-V5-CD4TMD (human) [11]) | % mRuby3-positive cells in the MACS eluate [12] | % mRuby3-positive cells in the MACS flow through [12] |
| --- | --- | --- | --- | --- | --- | --- | --- | --- | --- | --- | --- | --- | --- | --- | --- | --- | --- |
| Nc1ccc(C[C@H](CN(CC(=O)O)[C@H]2CCCC[C@@H]2N(CC(=O)O)CC(=O)O)N(CC(=O)O)CC(=O)O)cc1 [NH2-CHX-A″-DTPA, [(R)-2-amino-3-(4-aminophenyl)propyl]-trans-(S,S)-cyclohexane-1,2-diaminepentaacetic acid] | 1.4 nM | – | – | – | – | – | – | – | – | – | – | – | – | – | – | – | – |
| monoclonal anti-V5-antibody SV5-PK1 | – | 99% | 1.5% | 2550 | 6200 | 18500 | 5.4 fold | 3.7 fold | 2330 | 20600 | 7400 | 1740 | 1080 | 1130 | 6560 | 98.5% | 0.8% |
